Results published in US20150232544A1.
Where a chain is given by its changes, count along the chain named.

B1: humanized IPN002 variant VH1/Vk2 (antibody, V domains shown)
VH: EVHLVESGGALVKPGGSLRLSCAASGFSFSKYGMSWVRQAPGKGLEWVATISSSGSRTYYPDSVKGRFTISRDNAKNTLYLQMSSLKSEDTAMYYCSISWDGAMDYWGQGTSVTVSS
VL: DVVMTQSPLSLPVTLGQPASISCKSSQSIVHSNGNTYLEWYLQKPGQSPQLLVYKVSNRFSGVPDRFSGSGSGTDFTLKISRVEAEDVGTYYCFQGSLVPWAFGGGTKVEIK
B2: humanized IPN002 variant VH3/Vk2 (antibody, V domains shown)
VH: B1 VH with H3Q, S84N, K87R, S88A, S112T
VL: B1 VL
B3: humanized IPN002 variant VH1/Vk1 (antibody, V domains shown)
VH: B1 VH
VL: B1 VL with V3L
B4: humanized IPN002 variant VH4/Vk2 (antibody, V domains shown)
VH: B1 VH with H3Q, S84N, K87R, S88A, S97A, S112T
VL: B1 VL
B5: humanized IPN002 variant VH1/Vk4 (antibody, V domains shown)
VH: B1 VH
VL: B1 VL with V53I, T90V
B6: humanized IPN002 variant VH2/Vk2 (antibody, V domains shown)
VH: B1 VH with S84N, K87R, S88A, S112T
VL: B1 VL
B7: humanized IPN002 variant VH4/Vk3 (antibody, V domains shown)
VH: B1 VH with H3Q, S84N, K87R, S88A, S97A, S112T
VL: B1 VL with T90V
B8: humanized IPN002 variant VH3/Vk1 (antibody, V domains shown)
VH: B1 VH with H3Q, S84N, K87R, S88A, S112T
VL: B1 VL with V3L
B9: humanized IPN002 variant VH2/Vk4 (antibody, V domains shown)
VH: B1 VH with S84N, K87R, S88A, S112T
VL: B1 VL with V53I, T90V
B10: humanized IPN002 variant VH2/Vk3 (antibody, V domains shown)
VH: B1 VH with S84N, K87R, S88A, S112T
VL: B1 VL with T90V
B11: humanized IPN002 variant VH3/Vk3 (antibody, V domains shown)
VH: B1 VH with H3Q, S84N, K87R, S88A, S112T
VL: B1 VL with T90V
B12: humanized IPN002 variant VH4/Vk4 (antibody, V domains shown)
VH: B1 VH with H3Q, S84N, K87R, S88A, S97A, S112T
VL: B1 VL with V53I, T90V
B13: humanized IPN002 variant VH1/Vk3 (antibody, V domains shown)
VH: B1 VH
VL: B1 VL with T90V
B14: humanized IPN002 variant VH2/Vk1 (antibody, V domains shown)
VH: B1 VH with S84N, K87R, S88A, S112T
VL: B1 VL with V3L
B15: humanized IPN002 variant VH4/Vk1 (antibody, V domains shown)
VH: B1 VH with H3Q, S84N, K87R, S88A, S97A, S112T
VL: B1 VL with V3L
B16: humanized IPN002 variant VH3/Vk4 (antibody, V domains shown)
VH: B1 VH with H3Q, S84N, K87R, S88A, S112T
VL: B1 VL with V53I, T90V

biological target: eTau1b (UniProt P10636); assay: relative binding affinity, method not named; eTau 1b
UniProt P10636, sequence (P10636 other isoform, or with tags, fused parts or gaps): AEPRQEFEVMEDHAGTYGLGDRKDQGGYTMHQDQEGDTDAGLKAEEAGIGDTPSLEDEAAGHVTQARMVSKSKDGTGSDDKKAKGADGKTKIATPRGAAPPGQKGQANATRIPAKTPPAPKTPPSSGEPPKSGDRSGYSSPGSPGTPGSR

Binder	Kd [pM]
B1	558
B2	614
B3	737
B4	483
B5	597
B6	229
B7	313
B8	529
B9	520
B10	287
B11	689
B12	535
B13	590
B14	215
B15	359
B16	382

biological target: eTau2 (UniProt P10636); assay: relative binding affinity, method not named; eTau 2

Binder	Kd [pM]
B1	361
B2	408
B3	465
B4	451
B5	427
B6	283
B7	473
B8	705
B9	354
B10	261
B11	471
B12	564
B13	444
B14	225
B15	405
B16	447
